Source: paper doi:10.1101/2020.06.22.166033
pKd: −log10 of the molar value.

Target: biotinylated SARS-CoV-2 S2P probe (SARS-CoV-2-S2P-AVI) (SARS-CoV-2 | T4 phage) (UniProt P0DTC2)
Experiment: SPR

CR3022 Fab was tested. Which pKd did it give?
Its pKd is 7.04.
